Measurements as given in US20240018255A1.

Experiments:
[1] = target: SIRPα V9 fusion Fc (mouse IgG2a) (human; mouse); assay: ELISA, plate coated with SIRPα V9-Fc (mouse IgG2a), anti-hFab secondary, OD450
[2] = target: SIRPα V2 fusion Fc (mouse IgG2a) (human; mouse); assay: ELISA, plate coated with SIRPα V2-Fc (mouse IgG2a), anti-hFab secondary, OD450; fit value of a flat curve, see non_binding
[3] = target: SIRPα V4 fusion Fc (mouse IgG2a) (human; mouse); assay: ELISA, plate coated with SIRPα V4-Fc (mouse IgG2a), anti-hFab secondary, OD450
Sequence of SIRPα V4 fusion Fc (mouse IgG2a) (human; mouse) (chain, as listed by the source limits assumed): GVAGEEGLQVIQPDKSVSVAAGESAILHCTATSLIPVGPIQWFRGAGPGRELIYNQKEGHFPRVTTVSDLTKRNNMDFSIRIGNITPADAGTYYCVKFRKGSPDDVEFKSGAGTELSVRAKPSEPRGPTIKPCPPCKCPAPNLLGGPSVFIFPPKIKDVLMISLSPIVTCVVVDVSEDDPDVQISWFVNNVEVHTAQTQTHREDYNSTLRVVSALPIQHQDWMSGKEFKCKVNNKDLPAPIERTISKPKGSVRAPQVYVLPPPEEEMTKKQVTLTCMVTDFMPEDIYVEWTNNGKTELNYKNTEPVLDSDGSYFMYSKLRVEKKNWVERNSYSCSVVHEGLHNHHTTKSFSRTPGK

[4] = target: SIRPα V1 fusion Fc (mouse IgG2a) (human; mouse); assay: ELISA, plate coated with SIRPα V1-Fc (mouse IgG2a), anti-hFab secondary, OD450; unit from the axis Log(Conc.(nM))
Sequence of SIRPα V1 fusion Fc (mouse IgG2a) (human; mouse) (chain, as listed by the source limits assumed): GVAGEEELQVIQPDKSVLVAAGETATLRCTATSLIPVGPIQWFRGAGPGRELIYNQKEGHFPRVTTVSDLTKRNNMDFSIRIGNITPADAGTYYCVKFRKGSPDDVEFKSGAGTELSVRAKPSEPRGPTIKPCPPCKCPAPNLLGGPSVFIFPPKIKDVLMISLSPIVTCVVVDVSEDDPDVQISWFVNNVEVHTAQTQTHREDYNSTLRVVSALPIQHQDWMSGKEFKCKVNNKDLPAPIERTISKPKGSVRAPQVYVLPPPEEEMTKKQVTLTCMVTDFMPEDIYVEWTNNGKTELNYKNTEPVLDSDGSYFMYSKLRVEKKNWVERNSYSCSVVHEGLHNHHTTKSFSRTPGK

[5] = target: SIRPα V6 fusion Fc (mouse IgG2a) (human; mouse); assay: ELISA, plate coated with SIRPα V6-Fc (mouse IgG2a), anti-hFab secondary, OD450
Sequence of SIRPα V6 fusion Fc (mouse IgG2a) (human; mouse) (chain, as listed by the source limits assumed): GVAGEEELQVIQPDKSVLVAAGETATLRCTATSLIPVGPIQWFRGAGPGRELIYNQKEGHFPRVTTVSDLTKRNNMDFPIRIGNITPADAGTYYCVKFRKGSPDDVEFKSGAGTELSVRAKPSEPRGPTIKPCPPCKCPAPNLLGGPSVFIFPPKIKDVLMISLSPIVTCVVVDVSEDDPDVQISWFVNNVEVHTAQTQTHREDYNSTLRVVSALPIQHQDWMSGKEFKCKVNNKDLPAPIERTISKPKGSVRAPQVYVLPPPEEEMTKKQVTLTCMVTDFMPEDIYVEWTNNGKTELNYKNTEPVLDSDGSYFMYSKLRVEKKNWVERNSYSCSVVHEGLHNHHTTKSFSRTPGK

[6] = target: SIRPα V10 fusion Fc (mouse IgG2a) (human; mouse); assay: ELISA, plate coated with SIRPα V10-Fc (mouse IgG2a), anti-hFab secondary, OD450; fit value of a flat curve, see non_binding
Sequence of SIRPα V10 fusion Fc (mouse IgG2a) (human; mouse) (chain, as listed by the source limits assumed): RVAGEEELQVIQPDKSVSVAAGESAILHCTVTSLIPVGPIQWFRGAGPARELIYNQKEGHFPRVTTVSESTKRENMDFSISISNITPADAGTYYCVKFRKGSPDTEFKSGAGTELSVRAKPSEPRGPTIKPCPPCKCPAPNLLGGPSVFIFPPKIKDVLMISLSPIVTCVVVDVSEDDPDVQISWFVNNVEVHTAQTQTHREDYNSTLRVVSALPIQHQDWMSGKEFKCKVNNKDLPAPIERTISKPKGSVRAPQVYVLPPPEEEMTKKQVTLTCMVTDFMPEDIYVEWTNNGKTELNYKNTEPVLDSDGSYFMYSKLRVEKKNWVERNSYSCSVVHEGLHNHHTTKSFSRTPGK

[7] = target: SIRPα V5 fusion Fc (mouse IgG2a) (human; mouse); assay: ELISA, plate coated with SIRPα V5-Fc (mouse IgG2a), anti-hFab secondary, OD450; unit from the axis Log(Conc.(nM))
Sequence of SIRPα V5 fusion Fc (mouse IgG2a) (human; mouse) (chain, as listed by the source limits assumed): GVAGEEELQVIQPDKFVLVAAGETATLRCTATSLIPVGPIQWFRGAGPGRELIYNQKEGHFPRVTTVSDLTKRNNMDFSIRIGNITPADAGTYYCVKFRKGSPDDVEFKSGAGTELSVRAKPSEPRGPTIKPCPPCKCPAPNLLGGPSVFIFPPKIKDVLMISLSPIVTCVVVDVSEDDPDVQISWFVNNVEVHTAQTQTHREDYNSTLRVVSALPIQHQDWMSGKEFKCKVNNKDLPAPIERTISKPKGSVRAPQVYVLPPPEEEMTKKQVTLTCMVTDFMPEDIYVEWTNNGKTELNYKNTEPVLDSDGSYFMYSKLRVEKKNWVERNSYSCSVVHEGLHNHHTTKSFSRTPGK

Sequence of SIRPα V9 fusion Fc (mouse IgG2a) (human; mouse) (chain, as listed by the source limits assumed): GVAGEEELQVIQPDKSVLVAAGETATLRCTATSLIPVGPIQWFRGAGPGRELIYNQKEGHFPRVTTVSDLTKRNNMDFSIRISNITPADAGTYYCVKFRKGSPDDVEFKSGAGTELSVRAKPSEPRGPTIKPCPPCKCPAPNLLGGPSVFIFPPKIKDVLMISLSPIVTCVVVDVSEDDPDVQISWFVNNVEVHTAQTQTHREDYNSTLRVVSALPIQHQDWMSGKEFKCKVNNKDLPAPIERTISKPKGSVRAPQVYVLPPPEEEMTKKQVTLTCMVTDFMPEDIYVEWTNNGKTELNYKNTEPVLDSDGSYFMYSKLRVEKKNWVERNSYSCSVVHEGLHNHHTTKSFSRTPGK
Sequence of SIRPα V2 fusion Fc (mouse IgG2a) (human; mouse) (chain, as listed by the source limits assumed): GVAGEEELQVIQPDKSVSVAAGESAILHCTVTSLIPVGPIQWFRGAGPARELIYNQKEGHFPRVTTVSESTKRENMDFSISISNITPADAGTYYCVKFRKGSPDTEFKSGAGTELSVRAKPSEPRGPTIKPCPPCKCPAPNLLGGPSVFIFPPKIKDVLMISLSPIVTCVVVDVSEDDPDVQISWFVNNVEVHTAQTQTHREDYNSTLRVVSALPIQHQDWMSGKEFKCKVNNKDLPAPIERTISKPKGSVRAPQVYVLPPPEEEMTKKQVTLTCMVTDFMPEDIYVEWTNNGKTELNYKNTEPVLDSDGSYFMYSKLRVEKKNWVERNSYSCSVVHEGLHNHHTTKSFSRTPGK

EC50 (read off the curve) [1]: 0.2 nM | EC50 [2]: 0.0554 nM | EC50 (read off the curve) [3]: 0.1 nM | EC50 [4]: 0.154 nM | EC50 (read off the curve) [5]: 0.1 nM | EC50 [6]: 0.0554 nM | EC50 [7]: 0.13 nM
B1: anti-SIRPα antibody 18D5 of OSE Company (antibody, from a related filing, V domains shown)
VH: QVQLQQPGAELVRPGSSVKLSCKASGYTFTSYWVHWVKQRPIQGLEWIGNIDPSDSDTHYNQKFKDKASLTVDKSSSTAYMQLSSLTFEDSAVYYCVRGGTGTMAWFAYWGQGTLVTVSA
VL: DVVMTQTPLSLPVSLGDQASISCRSSQSLVHSYGNTYLYWYLQKPGQSPKLLIYRVSNRFSGVPDRFSGSGSGTDFTLKISRVEAEDLGVYFCFQGTHVPYTFGSGTKLEIKR
